What all share (test): native gel or EMSA; single recombinant Kai proteins or two of them together, 16 h at 30 °C in phosphorylation assay buffer (0.2 µg/µl dephosphorylated Strep-KaiC3, 0.1 µg/µl of the others); 4-16% clear native PAGE at 4 °C; Coomassie or anti-His blot
For series [1], the target named is KaiA3-His6 (Synechocystis sp. PCC 6803).
The target of series [2] is Strep-KaiC3 (Synechocystis sp. PCC 6803).
Series [3] concerns the target KaiB3 (recombinant, GST-tag removed) (Synechocystis sp. PCC 6803).
Series [4] deals with the molecule itself.

Where only a bound is given, the exact number is not on record here.

KaiA3-His6 (natural protein): the stoichiometry N (as a rule, a count of units in the complex or per binding partner) in series [1] is > 2.
As to Strep-KaiC3 (natural protein), in series [2], the stoichiometry N was determined as 6.
For “KaiB3 (recombinant, GST-tag removed) (natural protein)”, the stoichiometry N in series [3] was 4.

B1: Synechococcus KaiA (recombinant, GST-tag removed) (natural protein, Synechococcus elongatus PCC 7942, UniProt Q79PF6 1-284, looked up)
chain: MLSQIAICIWVESTAILQDCQRALSADRYQLQVCESGEMLLEYAQTHRDQIDCLILVAANPSFRAVVQQLCFEGVVVPAIVVGDRDSEDPDEPAKEQLYHSAELHLGIHQLEQLPYQVDAALAEFLRLAPVETMADHIMLMGANHDPELSSQQRDLAQRLQERLGYLGVYYKRDPDRFLRNLPAYESQKLHQAMQTSYREIVLSYFSPNSNLNQSIDNFVNMAFFADVPVTKVVEIHMELMDEFAKKLRVEGRSEDILLDYRLTLIDVIAHLCEMYRRSIPRET
notes: KaiA of Synechococcus elongatus PCC 7942; plasmid provided by T. Kondo; Migrates at about 60 kDa on clear native PAGE (dimer); source: E. coli BL21(DE3), purified (glutathione-agarose 4B, PreScission cleavage); not shown: GST, N-terminal, cleaved
With B1, the “stoichiometry N” value in series [4] worked out at 2.

The record behind these values is article PMC11372060, “Two KaiABC systems control circadian oscillations in one cyanobacterium” (Nature Communications, 2024).
